From PMC10165274 (The Journal of Biological Chemistry, 2023) come the findings set out here.

Holding throughout (assay): ITC; peptide (FEN1 800 uM, pol δ p66 550 uM, RNaseH2B 750 uM) with 33 to 38 uM individual PCNA (not trimeric rings); 25 °C
Settings in all cases: both partners purified

In test [1] the target is T1, Proliferating cell nuclear antigen, wild type (human, UniProt P12004 1-261).
T1 construct: PCNA, human; untagged, expressed from the pET3c vector; Homotrimeric ring; also called PCNA-WT; PCNA; source: E. coli BLR-DE3, purified (S and Q HiTrap columns, Sephacryl-200 gel filtration)

For test [2], the target named is T2, Proliferating cell nuclear antigen C148S variant (human, UniProt P12004 1-261, C148S).
T2 construct: PCNA, human, patient-derived variant p.Cys148Ser; untagged, made by site-directed mutagenesis of PCNA-WT in pET3c; Disease-associated natural allele (PARD); Homotrimeric ring; also called PCNA-C148S; C148S-PCNA; source: E. coli BLR-DE3, purified (S and Q HiTrap columns, Sephacryl-200 gel filtration)

In test [3] the target is T3, Proliferating cell nuclear antigen S228I variant (human, UniProt P12004 1-261, S228I).
T3 construct: PCNA, human, patient-derived variant p.Ser228Ile; expressed from the pET3c vector; Disease-associated natural allele (PARD); also called PCNA-S228I; source: E. coli BLR-DE3, purified (S and Q HiTrap columns, Sephacryl-200 gel filtration)
T3 sequence (P12004 whole entry S228I): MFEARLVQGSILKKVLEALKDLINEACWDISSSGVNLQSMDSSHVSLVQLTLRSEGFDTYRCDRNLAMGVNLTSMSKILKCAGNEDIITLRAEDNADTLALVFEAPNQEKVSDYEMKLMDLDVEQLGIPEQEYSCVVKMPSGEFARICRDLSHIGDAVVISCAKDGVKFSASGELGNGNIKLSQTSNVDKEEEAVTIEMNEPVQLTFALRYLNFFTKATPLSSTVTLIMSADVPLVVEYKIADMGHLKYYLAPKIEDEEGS

T2 sequence (P12004 whole entry C148S): as the sequence (P12004 whole entry S228I) above, with C148S, I228S counted along it
T1 sequence (P12004 whole entry): as the sequence (P12004 whole entry S228I) above, with I228S counted along it

B1: FEN1 PIP-box peptide (peptide)
peptide: STQGRLDDFFKVTGSL
notes: PIP-box peptide of Flap endonuclease 1 (FEN1); free C-terminus (-OH); source: synthetic peptide (21st Century Biochemicals)
In general, Kd refers to the concentration at which binding is half-saturated. Low readings indicate tighter binding, high ones weaker binding. Take B1: the Kd in test [1] and in test [2] was 11 ± 2 µM throughout.

B2: RNaseH2B PIP-box peptide (peptide)
peptide: DKSGMKSIDTFFGVKNKKKIGKV
notes: PIP-box peptide of RNaseH2B; free C-terminus (-OH); printed with a blank after SID; source: synthetic peptide (21st Century Biochemicals)
Take B2: the Kd was determined as 9.7 ± 0.3 µM in test [1] and 7.8 ± 0.01 µM in test [2].

B3: DNA polymerase delta p66 PIP-box peptide (peptide)
peptide: KANRQVSITGFFQRK
notes: PIP-box peptide of the p66 subunit of DNA polymerase delta; also called pol δ p66; pol δ; source: synthetic peptide (21st Century Biochemicals)
With B3, the values for the Kd in test [3], in test [1] and in test [2] were 4 ± 0.14 µM, 3 ± 0.16 µM and 2.8 ± 0.33 µM, respectively.
